The values below come from patent US11406665B2, “Therapeutic peptides that target TGF-beta interaction” (GENAGON THERAPEUTICS AB, priority 2017, dated 2022).

One assay deals with MCF7 breast cancer cells. Kind of assay: Western blot of PTP1B after ligand stimulation. It is filed as cell-based, human. The following applies: ligand 10 ng/ml, vs untreated control. For orientation: In western blotting, separated proteins are transferred to a membrane and probed.
For another assay, the system named is NK-92 cells. The assay is described as follows: Proseek secreted proteins, NK-92 culture. In kind it is cell-based. Particulars: NK92 culture. The protocol:
Secreted proteins from cell cultures where quantified using multiplexed proximity extension assay, Proseek (Assarsson E et al PlosOne 2014) by Olink Proteomics AB (Uppsala Sweden). Data is presented as Normalized Protein Expression (NPX log 2-scale). The Oncology I v2 92-plex panel was run. NK-92 cells were cultured in RPMI-1640 supplemented with 10% FBS, 12.5% Horse serum, L-glutamine, IL2 and 3-mercaptoethanol.

Another assay concerns PBMC. The assay is described as follows: Proseek secreted proteins, PBMC culture. It is filed as cell-based. The protocol:
Secreted proteins from cell cultures where quantified using multiplexed proximity extension assay, Proseek (Assarsson E et al PlosOne 2014) by Olink Proteomics AB (Uppsala Sweden). Data is presented as Normalized Protein Expression (NPX log 2-scale). The Oncology I v2 92-plex panel was run.
A cell suspension of heparinized peripheral blood was diluted 1:1 and placed on a Ficoll Paque Plus. Cells were centrifuged at 400×g for 30 minutes and the PBMC layer was transferred to a 50 ml tube of PBS and centrifuged for 7 min at 250×g.

B1: TGFb3: TGF-β isoform 3, ligand for CLPTM1 (protein)
chain: ALDTNYCFRNLEENCCVRPLYIDFRQDLGWKWVHEPKGYYANFCSGPCPYLRSADTTHSTVLGLYNTLNPEASASPCCVPQDLEPLTILYYVGRTPKVEQLSNMVVKSCKCS
For B1, the PTP1B level result with MCF7 breast cancer cells is “significantly reduced”. For the same molecule, the Caspase-3 secretion result in the assay with NK-92 cells was “increased”. In addition, in the assay on PBMC, the CXCL9 secretion entry is “reduced” and the CXCL11 secretion entry was “reduced”.
